These results are taken from article PMC10180619 (Nature Communications, 2023).

In test [1] the target is SARS-CoV-2 Beta receptor binding domain (SARS-CoV-2, Beta variant (B.1.351), K417N | E484K | N501Y, biotin (EZ-Link Sulfo-NHS-LC-Biotin, average of four biotins per RBD molecule)). Kind of test: BLI. The following applies: both partners purified.
Test [2] concerns the target SARS-CoV-2 Delta receptor binding domain (SARS-CoV-2, Delta variant (B.1.617.2), L452R | T478K, biotin (EZ-Link Sulfo-NHS-LC-Biotin, average of four biotins per RBD molecule)). The test is described as follows: BLI. To be noted: both partners purified.

B1: ADI-81654 (Fab, V domains shown)
VH: QVQLKQSGPTLVKPTQTLTLTCTFSGFSLSTYGVGVGWIRQPPGKALEWLALIYYDDDKRYSPSLKSRLTITKDTSQNQVVLTMTNMDPVDTATYYCARHTIATIFDFDSWGQGTLVTVSS
VL: QSVLTQPASVSGSPGQSITISCTGTSSDVGGHNYVSWYQQHPGKAPKLMIYEVSNRPSGVSNRFSGSKSGNTASLTISGLQAEDEADYSCSSYASSTSPVVFGGVTKLTVL
One may read the Kd as a measure of binding affinity in units of concentration. With B1, the Kd in test [1] was found to be 2.56 nM; in test [2], 1.83 nM.
